In patent US20260116991A1:
Several values for one entry are separate records, joined by “and”; a condition that tells them apart may be missing. Equal entries are not always repeated.

What was measured:
[1] = molecular target: murine GPC3-His protein (Sino Biological, Cat. No. 50989-M08B) (murine) (UniProt Q8CFZ4); assay: ELISA, coated murine GPC3-His
[2] = molecular target: human GPC3-His protein (Acro, Cat. No. GP3-H52H4) (human) (UniProt P51654); assay: ELISA, coated human GPC3-His
[3] = molecular target: monkey GPC3-His protein (Acro, Cat. No. GP3-C5225) (monkey); assay: ELISA, coated monkey GPC3-His
[4] = molecular target: human GPC3 expressed on CHO-K1 recombinant cells (human) (UniProt P51654); assay: FACS on CHO-K1 clone CHOK1-hGPC3.1C3
[5] = molecular target: human GPC3 expressed on CHO-K1 recombinant cells (human) (UniProt P51654); assay: FACS on CHO-K1 clone CHOK1-hGPC3.2B5
[6] = molecular target: human GPC3 expressed on CHO-K1 recombinant cells (human) (UniProt P51654); assay: FACS on CHO-K1 clone CHOK1-hGPC3.3E9
[7] = molecular target: GPC3 expressed endogenously on HepG2 cells (UniProt P51654); assay: FACS on HepG2 cells, control in the row of Y035
[8] = molecular target: GPC3 expressed endogenously on HepG2 cells (UniProt P51654); assay: FACS on HepG2 cells, control in the row of T2-23
[9] = molecular target: GPC3 on HepG2 cells (human) (UniProt P51654); assay: FACS on HepG2 cells
[10] = molecular target: GPC3 endogenously expressed on HepG2 cells (UniProt P51654); assay: FACS on HepG2 cells
[11] = molecular target: human GPC3-His protein (human) (UniProt P51654); assay: ELISA, coated human GPC3, antibody 1 nM
[12] = molecular target: human GPC3-His protein (human) (UniProt P51654); assay: ELISA, coated human GPC3, antibody 10 nM
[13] = molecular target: human GPC3-His protein (human) (UniProt P51654); assay: ELISA, coated human GPC3, antibody 0.1 nM
[14] = molecular target: human GPC3-His protein (human) (UniProt P51654); assay: ELISA, coated human GPC3, antibody 100 nM
[15] = molecular target: human GPC3-His protein (human) (UniProt P51654); assay: ELISA, coated human GPC3, antibody 0.01 nM
[16] = molecular target: human GPC3-His protein (human) (UniProt P51654); assay: ELISA, coated human GPC3, antibody 0.001 nM
[17] = molecular target: human GPC3-His protein (human) (UniProt P51654); assay: ELISA, coated human GPC3, antibody 0.0001 nM

murine GPC3-His protein (Sino Biological, Cat. No. 50989-M08B) (murine), sequence (Q8CFZ4 25-558 limits assumed): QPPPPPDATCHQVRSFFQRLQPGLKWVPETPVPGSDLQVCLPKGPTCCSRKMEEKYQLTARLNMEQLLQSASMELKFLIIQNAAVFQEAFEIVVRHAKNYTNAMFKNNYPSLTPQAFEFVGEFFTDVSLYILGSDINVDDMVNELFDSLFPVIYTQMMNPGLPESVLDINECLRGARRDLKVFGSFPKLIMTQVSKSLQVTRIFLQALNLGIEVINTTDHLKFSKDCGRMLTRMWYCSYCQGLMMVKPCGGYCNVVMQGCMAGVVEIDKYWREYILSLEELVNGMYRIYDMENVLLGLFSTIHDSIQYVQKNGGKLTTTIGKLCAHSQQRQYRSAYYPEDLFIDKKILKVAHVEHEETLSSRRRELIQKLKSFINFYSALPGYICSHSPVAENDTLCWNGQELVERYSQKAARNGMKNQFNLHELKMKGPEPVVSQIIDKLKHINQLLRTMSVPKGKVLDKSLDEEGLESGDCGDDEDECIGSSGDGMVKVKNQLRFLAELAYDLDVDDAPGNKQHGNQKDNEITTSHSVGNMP

hIgG1 control (antibody)
OD450 at 0.0001 nM antibody [1]: 0.06 OD450 nm | OD450 at 0.001 nM antibody [1]: 0.05 OD450 nm | OD450 at 0.01 nM antibody [1]: 0.05 OD450 nm | OD450 at 0.1 nM antibody [1]: 0.06 OD450 nm | OD450 at 1 nM antibody [1]: 0.05 OD450 nm | OD450 at 10 nM antibody [1]: 0.06 OD450 nm | OD450 at 100 nM antibody [1]: 0.12 OD450 nm

hIgG1 (antibody)
OD450 at 0.0001 nM antibody [2]: 0.047 OD450 | OD450 at 0.001 nM antibody [2]: 0.048 OD450 | OD450 at 0.01 nM antibody [2]: 0.048 OD450 | OD450 at 0.1 nM antibody [2]: 0.05 OD450 | OD450 at 1 nM antibody [2]: 0.048 OD450 | OD450 at 10 nM antibody [2]: 0.05 OD450 | OD450 at 100 nM antibody [2]: 0.072 OD450 | OD450 at 0.0001 nM antibody [3]: 0.048 OD450 | OD450 at 0.001 nM antibody [3]: 0.044 OD450 | OD450 at 0.01 nM antibody [3]: 0.044 OD450 | OD450 at 0.1 nM antibody [3]: 0.045 OD450 | OD450 at 1 nM antibody [3]: 0.044 OD450 | OD450 at 10 nM antibody [3]: 0.047 OD450 | OD450 at 100 nM antibody [3]: 0.056 OD450 | OD450 at 0.0001 nM antibody [1]: 0.049 OD450 | OD450 at 0.001 nM antibody [1]: 0.051 OD450 | OD450 at 0.01 nM antibody [1]: 0.052 OD450 | OD450 at 0.1 nM antibody [1]: 0.05 OD450 | OD450 at 1 nM antibody [1]: 0.05 OD450 | OD450 at 10 nM antibody [1]: 0.055 OD450 | OD450 at 100 nM antibody [1]: 0.105 OD450 | Mean fluorescence intensity of cells [4]: 19.3 MFI | Mean fluorescence intensity of cells [5]: 19.3 MFI | Mean fluorescence intensity of cells [6]: 19.3 MFI | Mean fluorescence intensity of cells [7]: 137 MFI | Mean fluorescence intensity of cells [8]: 137 MFI

hIgG (antibody)
Max MFI [9]: 58.8

hIgG1 (IgG subtype control, human IgG1) (antibody)
Max MFI [10]: 154 MFI and 258 MFI and 110 MFI | OD450 nm [11]: 0.09 OD450 | OD450 nm [12]: 0.09 OD450 | OD450 nm [13]: 0.09 OD450 | OD450 nm [14]: 0.11 OD450 | OD450 nm [15]: 0.09 OD450 | OD450 nm [16]: 0.09 OD450 | OD450 nm [17]: 0.09 OD450
